Literature values, collected in publication PMC2846628.

Molecular target: Cdc25 phosphopeptide (Homo sapiens)
Assay: NMR titration

In the case of Pin1 1-163 (from UniProt Q13526), the Kd is given as 8 µM.
